Target: Human IL13Rα2 (human, UniProt Q14627 27-380)
Assay: SPR; Biacore T200; human IL13Rα1 (2,800 RU) or IL13Rα2 (3,100 RU) amine-coupled to CM5 chips in 10 mM sodium acetate pH 4.5; IL13-Fc proteins injected in twofold serial dilutions at constant flow (30 ml/min as printed); association 180 s, dissociation 600 s; regeneration 10 mM glycine pH 2.0; 1:1 fitting model
Settings: both partners purified

Chain of Human IL13Rα2 (Q14627 27-380): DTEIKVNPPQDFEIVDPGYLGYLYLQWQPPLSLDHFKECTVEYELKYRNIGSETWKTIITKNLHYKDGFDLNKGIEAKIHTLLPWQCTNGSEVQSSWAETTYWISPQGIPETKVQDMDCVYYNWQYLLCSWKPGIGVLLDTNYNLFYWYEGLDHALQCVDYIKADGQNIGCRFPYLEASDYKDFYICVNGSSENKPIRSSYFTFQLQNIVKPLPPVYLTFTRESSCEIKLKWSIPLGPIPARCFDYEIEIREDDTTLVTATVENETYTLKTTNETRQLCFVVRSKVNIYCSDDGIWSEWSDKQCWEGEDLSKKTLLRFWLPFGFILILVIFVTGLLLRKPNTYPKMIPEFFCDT

Kd: 7.4 nM
koff: 1.26e-05 s⁻¹
kon: 1670 M⁻¹ s⁻¹
B1: YYB-103 IL13 (modified IL13.E13K.R66D.S69D.R109K, antigen binding domain of YYB-103) fused with human Fc (Fc fusion)
chain: SPGPVPPSTALRKLIEELVNITQNQKAPLCNGSMVWSINLTAGMYCAALESLINVSGCSAIEKTQDMLDGFCPHKVSAGQFSSLHVRDTKIEVAQFVKDLLLHLKKLFKEGQFN
modifications: Fused to human Fc (carrier left out; probably dimeric through Fc). Numbering offset +32 is the only one that fits E13, R66, S69 and R109 together. / Amine-coupled to CM5 chip; extracellular domain …
